# B1: Clone B08: anti-human CD38 antibody, HCVR SEQ ID NO: 33 and LCVR SEQ ID NO: 39 (antibody, V domains shown)
# VH: EVQLVESGGSLVKPGGSLRLSCAASGFTFSNYYMNWVRQAPGKGLEWISSISGSSRSIYYADFVKGRFTISRDNAKNSLYLQMNSLRAEDTAVYYCVRSSDDYYYDYGMDVWGRGTLVTVSS
# VL: QSVLTQPASVSGSPGQSITISCAGTSSDVGGSYSVSWYQQHPGKAPKLMIYDDSNRPSGVSNRFSGSKSGNTASLTISGLQAEDEADYYCSSYTDYSTRVFGGGTKL
# modifications: HCVR B08; LCVR B08
# Tested on: midbrain dopaminergic (TH+) neurons
# Assay: MPP+ intoxication model in midbrain cell cultures, survival of DA (TH+) neurons
# Format: cell-based, Wistar rat
# Description: For this purpose, spontaneously occurring DA cell death was prevented by a treatment combining depolarizing concentrations of K^+ (30 mM) and MK801 (5 μM), a glutamate receptor antagonist used to prevent unwanted excitotoxic insult. The cultures were then exposed to 3 μM MPP between 5 and 7 days in vitro (DIV) to achieve a loss of approximately 50% of DA neurons.
# Animals were treated in accordance with the Guide for the Care and Use of Laboratory Animals (National Research Council, 1996), European Directive 86/609, and the guidelines of the local institutional animal care and use committee. Cultures were prepared from the ventral mesencephalon of gestational age 15.5 Wistar rat embryos (Janvier Breeding Center, Le Genest St Isle, France). Dissociated cells in suspension obtained by mechanical trituration of midbrain tissue pieces were seeded at a density of 1.2-1.5×10^5 cells/cm^2 onto tissue culture supports precoated with 1 mg/mL polyethylenimine diluted in borate buffer pH 8.3 as described (Michel et al., 1997. J Neurochem. 69(4):1499-507). The cultures were then maintained in N5 medium supplemented with 5 mM glucose, 5% horse serum, and 0.5% fetal calf serum, except for the first 3 DIV, when the concentration of fetal calf serum was 2.5% to favor initial maturation of the cultures (Guerreiro et al., 2008. Mol Pharmacol. 74(4):980-9). They were fed daily by replacing 70% of the medium. Routinely, mesencephalic cultures were established on Nunc 24-well culture plates (Thermofischer Scientific, Rochester, N.Y.). Note that these cultures contain tyrosine hydroxylase (TH)^+ neurons that were exclusively dopaminergic (Traver et al., 2006. Mol Pharmacol. 70(1):30-40). TH^+ neurons represented approximately 1-2% of the total number of neuronal cells present in these cultures. The evaluation of the survival of DA neurons was performed by counting cells immunopositive for TH as described (Toulorge et al., 2011. Faseb J. 25(8):2563-73).
# Treatments with MPP were performed in cultures where the spontaneous death process was prevented by long-term exposure to depolarizing concentrations of K^+ (30 mM), in the presence of the glutamate receptor antagonist MK801 (5 μM) to prevent unwanted excitotoxic insults as described previously (Douhou et al., 2001. J Neurochem. 78(1): 163-74). Treatments with MPP and potential neuroprotective molecules were carried out between 5 and 7 DIV.
# The cultures were fixed for 12 min using 4% formaldehyde in Dulbecco's phosphate-buffered saline (PBS), then washed twice with PBS before an incubation step at 4° C. for 24 h with the following antibodies. A monoclonal anti-TH antibody diluted 1/5000 (ImmunoStar, Inc., Hudson, Wis.) was used to assess the survival of DA neurons. Antibody was diluted in PBS containing 0.2% Triton X-100. Detection of the primary antibodies was performed with an Alexa Fluor-488 conjugate of an anti-mouse IgG antibody.
molecule,measurement,setting,value
B1,"neuroprotective effect against MPP+-induced DA cell death, compared with reference clone HB7","3 μM MPP+ between 5 and 7 DIV, each clone and HB7 0.5 μg/mL",stronger neuroprotective effect
same,neuroprotective effect in the presence of the lysosomal exocytosis inhibitor vacuolin-1,"3 μM MPP+, test substance 1 μg/mL, vacuolin-1 10 μM",antagonized

# Reference: patent US20220089765A1, “CD31 COMPETITORS AND USES THEREOF” (ENCEFA, priority 2019, published 2022)
